T1: recombinant Human IL-17BR-His extracellular domain (human, UniProt Q9NRM6 18-292)
T1 construct: extracellular domain; also called human IL17BR-his tag protein
T1 sequence (looked up): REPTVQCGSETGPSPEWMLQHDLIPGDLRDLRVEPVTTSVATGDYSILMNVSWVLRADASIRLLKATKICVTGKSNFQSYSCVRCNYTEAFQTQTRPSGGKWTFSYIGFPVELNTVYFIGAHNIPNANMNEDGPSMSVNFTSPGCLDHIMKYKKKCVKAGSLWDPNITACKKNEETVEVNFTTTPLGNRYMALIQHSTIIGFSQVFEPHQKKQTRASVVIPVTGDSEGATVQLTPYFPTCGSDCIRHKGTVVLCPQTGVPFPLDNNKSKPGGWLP

T2: human IL17RD-his tag (human, UniProt Q8NFM7 17-299, limits assumed)
T2 construct: Bought
T2 sequence (looked up): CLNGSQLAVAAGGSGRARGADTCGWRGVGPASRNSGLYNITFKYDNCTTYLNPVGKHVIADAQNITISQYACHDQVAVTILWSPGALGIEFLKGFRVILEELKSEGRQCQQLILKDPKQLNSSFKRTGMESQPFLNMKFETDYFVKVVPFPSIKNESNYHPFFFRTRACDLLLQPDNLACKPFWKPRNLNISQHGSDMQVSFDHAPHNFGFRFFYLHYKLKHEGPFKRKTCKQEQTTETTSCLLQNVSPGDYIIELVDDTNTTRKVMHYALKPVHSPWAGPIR

T3: human IL17RA-Fc fusion protein (human, UniProt Q96F46 33-320)
T3 construct: Bought; not shown: Fc part of the bought fusion, not described
T3 sequence (looked up): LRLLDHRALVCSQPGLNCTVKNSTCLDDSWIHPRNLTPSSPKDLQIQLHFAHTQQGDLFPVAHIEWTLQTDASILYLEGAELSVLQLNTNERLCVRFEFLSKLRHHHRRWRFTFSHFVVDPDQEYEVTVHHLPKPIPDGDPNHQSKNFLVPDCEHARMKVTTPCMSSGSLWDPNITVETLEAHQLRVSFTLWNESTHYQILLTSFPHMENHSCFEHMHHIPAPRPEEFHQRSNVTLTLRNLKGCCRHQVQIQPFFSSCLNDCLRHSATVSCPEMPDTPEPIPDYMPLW

T4: human IL17RC-histag protein (human, UniProt Q8NAC3-2 21-467, limits assumed)
T4 construct: Bought
T4 sequence (looked up): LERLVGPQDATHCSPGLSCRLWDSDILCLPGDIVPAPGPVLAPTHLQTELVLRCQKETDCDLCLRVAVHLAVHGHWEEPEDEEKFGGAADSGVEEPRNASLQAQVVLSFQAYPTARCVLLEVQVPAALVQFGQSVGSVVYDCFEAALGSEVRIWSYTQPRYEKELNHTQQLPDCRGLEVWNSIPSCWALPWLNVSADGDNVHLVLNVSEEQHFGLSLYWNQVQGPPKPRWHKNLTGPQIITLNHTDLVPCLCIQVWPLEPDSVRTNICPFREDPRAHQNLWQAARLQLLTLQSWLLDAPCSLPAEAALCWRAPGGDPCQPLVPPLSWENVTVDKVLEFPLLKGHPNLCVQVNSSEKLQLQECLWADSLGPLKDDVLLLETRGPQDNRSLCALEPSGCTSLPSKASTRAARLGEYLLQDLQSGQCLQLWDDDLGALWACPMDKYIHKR

T5: Mouse IL-17BR-(Fc) (mouse, UniProt Q9JIP3 18-286)
T5 construct: extracellular domain; Bought (Sino Biological); not shown: Fc part of the bought fusion (Sino Biological), not described
T5 sequence (looked up): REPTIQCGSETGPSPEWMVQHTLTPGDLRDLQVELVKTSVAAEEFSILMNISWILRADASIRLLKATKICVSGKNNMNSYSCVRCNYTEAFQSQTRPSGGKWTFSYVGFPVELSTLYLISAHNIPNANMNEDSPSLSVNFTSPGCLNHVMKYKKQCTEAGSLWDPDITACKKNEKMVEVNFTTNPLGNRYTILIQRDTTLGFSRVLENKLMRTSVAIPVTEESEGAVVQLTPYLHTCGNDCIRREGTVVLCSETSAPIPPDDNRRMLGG


What was measured:
[1] = target: T1, recombinant Human IL-17BR-His …; experiment: binding ELISA on Human IL-17BR-His, absorbance 650 nm against antibody conc. (nM)
[2] = target: T1, recombinant Human IL-17BR-His …; experiment: Biacore T200, antibody captured by anti-human Fc, Human IL17BR-His 20-1.25 nM, 1:1 model
Experimental: A Human Antibody Capture kit was used to coat an anti-human IgG (Fc) antibody (in 10 mM sodium acetate, pH 5.0 immobilisation buffer) onto flow paths 2-4 a CM5 chip. Flow-path 1 was blocked and used as a blank control. This anti-human IgG coated chip was then used to immobilize the humanized antibody variants. A concentration series from 20-1.25 nM of Human IL17BR-His using a 2-fold dilution series was made using HBS-EP⁺ buffer. Purified antibody samples were diluted to 1 μg/ml in HBS-EP⁺ buffer and each injected onto one coated flow-path on the chip at a flow-rate of 10 μl/min for 2 mins in a Biacore T200 (GE Healthcare). Association time was set to 8 mins and Dissociation to 90 mins at a flow-rate of 30 μl/min Kinetics of binding/dissociation were analysed using a 1:1 model in the BIAevaluation software
8. Kinetics of the Binding of Humanized hD9040, hD9041 and hD9042 Antibodies to IL-17BR To further characterize the binding of the lead humanized candidates hD9040, hD9041 and hD9042 antibodies to Human IL-17BR-His, kinetics experiments were performed using the Biacore T200 instrument.

human IL17RD-his tag = target: T2, human IL17RD-his tag; experiment: ELISA, plate coated with 2 ug/ml human IL17RD-his tag, absorbance 450 nm
Experimental: (§1) ELISA plates were coated overnight at 4° C. with 2 μg/ml human IL17RA-Fc fusion protein(Sino Biological, 10895-H03H), human IL17BR-his tag protein (Sino Biological, 13091-H08H), human IL17RC-histag protein (11747-H08B), human IL17RD-his tag (10507-H08H). The next day, plates were blocked with 1% BSA in PBS, followed by the addition of hD9042. The binding specificity of hD9042 was measured as the absorbance at 450 nm using anti-human IgG F(ab′)2 peroxidase antibody (Jackson ImmunoResearch Inc).

[3] = target: T3, human IL17RA-Fc fusion protein; experiment: ELISA, plate coated with 2 ug/ml human IL17RA-Fc fusion protein, absorbance 450 nm
Experimental: as §1

[4] = target: T1, recombinant Human IL-17BR-His …; experiment: ELISA, plate coated with 2 ug/ml human IL17BR-his tag protein, detection with anti-human IgG F(ab')2 peroxidase antibody
Experimental: as §1

[5] = target: T4, human IL17RC-histag protein; experiment: ELISA, plate coated with 2 ug/ml human IL17RC-histag protein, absorbance 450 nm
Experimental: as §1

Mouse IL-17BR-(Fc) = target: T5, Mouse IL-17BR-(Fc); experiment: binding ELISA on recombinant Mouse IL-17BR-(Fc) extracellular domain, absorbance 450 nm against antibody conc. (nM)
[6] = target: Cynomolgus monkey IL-17BR-monoFc (cynomolgus monkey, UniProt A0A2K5TUK1 18-292); experiment: binding ELISA on recombinant Cynomolgus monkey IL-17BR-monoFc extracellular domain, absorbance 450 nm against antibody conc. (nM)
[7] = target: T1, recombinant Human IL-17BR-His …; experiment: binding ELISA on recombinant Human IL-17BR-His extracellular domain, absorbance 450 nm against antibody conc. (nM)

Chain of Cynomolgus monkey IL-17BR-monoFc (A0A2K5TUK1 entry or part of it): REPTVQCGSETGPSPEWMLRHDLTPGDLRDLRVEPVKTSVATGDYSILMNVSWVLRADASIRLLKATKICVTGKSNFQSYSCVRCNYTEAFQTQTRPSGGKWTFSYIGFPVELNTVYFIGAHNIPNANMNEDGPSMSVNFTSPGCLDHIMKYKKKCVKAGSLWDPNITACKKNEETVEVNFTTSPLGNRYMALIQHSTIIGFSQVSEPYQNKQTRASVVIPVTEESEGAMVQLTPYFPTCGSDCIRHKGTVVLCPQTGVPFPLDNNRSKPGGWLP

EC50 [1] [nM] | Kd [2] [nM] | koff [2] [s⁻¹] | kon [2] [M⁻¹ s⁻¹] | binding result (human IL17RD-his tag) | binding result [3] | EC50 (read off the curve) [4] [nM] | binding result [5] | EC50 (Mouse IL-17BR-(Fc)) [nM] | EC50 [6] [nM] | EC50 [7] [nM] | Binder
0.474 | 0.02 | 6.66e-05 | 3.42e+06 | – | – | – | – | – | – | – | humanized antibody hD9040 (antibody, V domains shown, Human IgG1/kappa (pHuG1, pHuK vectors)) VH: EVQLVQSGAEVKKPGASVKVSCKTSGYTFISYWMNWVRQAPGQGLEWMGRIDPYDSEIQYNQKFKDRVTLTRDTSISTAYMELSRLRSDDTAVYYCARSGGFDWFAYWGQGTLVTVSS VL: DIQMTQSPSSLSASVGDRVTITCRASENINSNLAWYQQKPGKAPKLLLYDVTNLADGVPSRFSGSGSGTDYTLTISSLQPEDFATYYCQHFWGPPYTFGGGTKVEIK
0.499 | 0.011 | 4.44e-05 | 3.89e+06 | – | – | – | – | – | – | – | humanized antibody hD9041 (antibody, V domains shown, Human IgG1/kappa (pHuG1, pHuK vectors)) VH: EVQLVQSGAEVKKPGASVKVSCKTSGYTFISYWMNWVRQAPGQGLEWMGRIDPYDSEIQYAQKFQGRVTLTRDTSISTAYMELSRLRSDDTAVYYCARSGGFDWFAYWGQGTLVTVSS VL: DIQMTQSPSSLSASVGDRVTITCRASENINSNLAWYQQKPGKAPKLLLYDVTNLADGVPSRFSGSGSGTDYTLTISSLQPEDFATYYCQHFWGPPYTFGGGTKVEIK
0.414 | 0.017 | 8.23e-05 | 4.85e+06 | no binding | no binding | ~0.3 | no binding | – | – | – | humanized antibody hD9042 (antibody, V domains shown, Human IgG1/kappa (pHuG1, pHuK vectors); also called lead candidate) VH: QVQLVQSGAEVKKPGASVKVSCKASGYTFISYWMNWVRQAPGQGLEWMGRIDPYDSEIQYNQKFKDRVTMTRDTSISTAYMELSRLRSDDTAVYYCARSGGFDWFAYWGQGTLVTVSS VL: DIQMTQSPSSLSASVGDRVTITCRASENINSNLAWYQQKPGKAPKLLLYDVTNLADGVPSRFSGSGSGTDYTLTISSLQPEDFATYYCQHFWGPPYTFGGGTKVEIK
– | 0.017 | 5e-05 | 2.9e+06 | – | – | – | – | 0.216 | 0.291 | 0.23 | chimeric antibody cD9001 (antibody, V domains shown, Mouse D9.2 variable domains on human IgG1/kappa constant regions; also called chimeric D9.2) VH: QVQLQQPGAELVRPGASVKLSCKTSGYTFISYWMNWVKQGPEQGLEWIGRIDPYDSEIQYNQKFKDKAILTVDKSSSAAYMQLISLTSEDSAVYYCARSGGFDWFAYWGQGTLVTVSA VL: DIQMTQSPASLSVSVGETVTITCRASENINSNLAWYQQKKGKSPQLLVYDVTNLADGVPSRFSGSGSGTQYSLKINSLQSEDFGSYYCQHFWRPPYTFGGGTNLEIK
